Experimental data: the DeepSol protein solubility set

Assay: soluble on expression in E. coli; label from the status in PepcDB or PDB records

For “MILKKDDRMYTKKPTIPENVIERAYKGKCTKEDALLLLEGNPFELFELANDLRAIAAGDTVSYVVNRNIYITNKCVGNCGFCAYRTEKGYILSIEEILKKAGDARKAGAVEVCVQGGYTPEADMEFYLEVIESLKAEYPDLCLHALSPMEVNYAAETSGMSVEEALRRLKKSGLDSLTGTSAEILSDRVRKIICPSKISTQQWIDTVTAAHKAGISTNATIMYGHVETLKERLDHVFTIREIQKETGGFTELIPMSFLPYNNPVGEKMLASGKFSSTGLEDLQLIAISRVILHTYVKNIQATWVKLGKKLAQVALQCGANDLGGTLMEDQISTASGGSHGEYVSPAEFEWMIKGAGRVPVQR”, which “soluble on expression in E. coli” value is on record?
The value was “not soluble”.

Which “soluble on expression in E. coli” value does the source give for “MKKQNPWIYLNEEEKNQILNFSESYKKFISKFKTEREVTAYALDKAKKLGFINAEEKKNLMPGDKIFYTCREKSVAFAIIGKNPIEDGMNFIVSHTDSPRLDAKPSPISEENELTFIKTNYYGGIKKYQWLSTPLSIRGVVFLKNGEKVEINIGDNENDPVFVIPDILPHLDRKIQRNKKSDEIVEGENLKILIGSLPIETKEKNKVKLATLQLIKEKYKIEEEDFVSSEIEIVPAGTAKDVGFDKALIGAYGQDDKICVFTSLESIFDLEETPNKTAICFLVDKEEIGSTGSTGLDSRYLEYFVSDMIFKIKKSEYNNLHVQKALWNSKSISADVCAAINPLFSSVHDEQNAPQLGYGIPIMKYTGHGGKSMASDADAELVSYIRQLLNKNNIAWQVATLGKVEEGGGGTVAKFLAGYGIRTIDMGPAVISMHSPMEITSKFDLYNAYLAYKAFYRE” here?
The value was “soluble”.

With “MGSDKIHHHHHHMNRESMRPQFAPARSPSDVAMISRHIEAGVHRLPRAPHHRVMVHASAATRSYCNQVGRYFVRRAGDIDLVPAGEEGGFEAETAFDTVEIVLPPALMERVAAELGGRALVSRLDTRHLLRDQRIEHLARALQNDLDAGAPSGSLFADSIGAALAVRLLGVDDDIDIERTNRLSDTQLKRVLEHIEAALHEPLSIDRLARVAGASSSHLRTWFKVATGVTLHRYVLRRRVERARLLLERGDLSTSEVAELTGFAHQSHLAHWMRREIGQTPRDVRRARPPK” as the sequence, how does the “soluble on expression in E. coli” value read?
The value was “not soluble”.

With “MEGEKGSKTRKGDALAREKLLEIAEKIYNQFEEEVVPSVSLPSRTKANLEYSDESDVWVYGDRESERSAKTVKGAFQLLKTTYATDFLINEHLARNRGSTLRELYYISEGWDYAKFKEQGESDRLIEDLEILTSLQREYFHMRPEEDGATMFGPIEITEQTKRGERNIHCQKDVGEGGYQIPFNVENIEFQKHDASMIIAIETGGMYARLMENGFDEAYNAILVHLKGQPARSTRRIIKRMNEELGIPVAVFTDGDPWSYRIYASVAYGAIKSAHLSEFMATPAAKFLGLQPSDIVEYELSTDKLTEQDVSALRSELSDPRFESDYWKEQIQLQLDIGKKAEQQAFAGKGLDFVTEVYLPNRLKEMGMI” as the sequence, how does the “soluble on expression in E. coli” value read?
The value was “soluble”.

Which “soluble on expression in E. coli” value does the source give for “MGSDKIHHHHHHMNIVTLISWDFKRNNESFQRAIINGYDYWSRILDDHGVEKYVILLTCNRVELYYRGDPFDVQEKGYNIISDDMAINHLFHVAAGLDSMSIGENEVLKQVKQAYEKSSSMGKSDKFLSLIFQRAISVGKLVRSKTGIGKGKVSIPSIVYDIVRKNGGNKILLVGNGMLASEIAPYFSYPQYKVTVAGRNIDHVRAFAEKYEYEYVLINDIDSLIKNNDVIITATSSKTPIVEERSLMPGKLFIDLGNPPNIERGNNVITLDEIYEISKKNEMLREEKINQAEILIENEMKATMNKIKDLMIDDIFSQFYRFASVVQTMEIQKFRKMHPEVNENDLEALAHSIINKILNVPVTTLKAVSRSQGNSDFNRLFESFSSNFNDIVSAALQSYEGLRDTQSLRDRTRQLLQKS” here?
The value was “not soluble”.

With “MTFTGLPPEDVPALMTGAVIPHPSVAGRADAYLPSPCIQNHAANLAFLPDGTLSCVWFGGTMEGMRDISIYMSRLPPGSGRWSEPEKMSDDPEKSEQNPLIFNAPDGKTWLLYTSQTSGNQDGSIVKCRISDDGGKTFGPVQILCDSPGTFVRQQIVVNDRGDWLLPIFRCVGLEGQRWSGDADTAAVLISRDGGASWQMRDIPDSIGAVHMNILPLGGCEMIAFYRNRFAETILSSRSADGGETWSPPEPTELPNNNSSIQATVLDNGGIAMVYNHSNATMSDARRQSLYDEIEGDECGENAAVVADAGRKAVWGVPRAPLSLAISRDGGRTFPHRIDLDTGDGFCLSNNSKDSLNREFSYPSVIEGSDGTLHVAYTYYRRAIKYVRLAPRALPLEHHHHHH” as the sequence, how does the “soluble on expression in E. coli” value read?
The value was “soluble”.
